Results from FireProtDB (doi:10.1016/s1570-9639(02)00548-4).
Several values for one entry are separate records, joined by “and”; a condition that tells them apart may be missing. Equal entries are not always repeated.

Settings: pH 6, cacodylate 0.03 M, reversible: yes; for denaturant m value / denaturant midpoint (higher = more stable) / unfolding free energy: 25 °C, GdnHCl, KCl 0.1 M
[1] = Equus caballus, Thermal, CD, KCl

Sequence of Cytochrome c wild type, P62894 (P62894 whole entry): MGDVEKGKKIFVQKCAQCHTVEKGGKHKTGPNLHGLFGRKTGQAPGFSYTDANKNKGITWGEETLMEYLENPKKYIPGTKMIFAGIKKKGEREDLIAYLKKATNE
Sequence of Cytochrome c wild type, P00004 (P00004 whole entry): as the sequence (P62894 whole entry) above, with S48T, G61K, G90T counted along it

## Cytochrome c wild type, P62894
Bos taurus, Absorbance
  denaturant m value: 3.95 kcal/mol/M
  denaturant midpoint (higher = more stable): 2.65 M
  unfolding free energy: 10.5 kcal/mol
Bos taurus, CD
  denaturant m value: 4.02 kcal/mol/M and 4.03 kcal/mol/M and 3.91 kcal/mol/M
  denaturant midpoint (higher = more stable): 2.63 M and 2.61 M
  unfolding free energy: 10.6 kcal/mol and 10.2 kcal/mol

## Cytochrome c wild type, P00004
Equus caballus, Absorbance
  denaturant m value: 3.53 kcal/mol/M and 2.49 kcal/mol/M and 2.87 kcal/mol/M
  denaturant midpoint (higher = more stable): 2.49 M and 2.35 M and 2.37 M
  unfolding free energy: 8.83 kcal/mol and 6.01 kcal/mol and 6.81 kcal/mol
Equus caballus, CD
  denaturant m value: 2.69 kcal/mol/M and 3.48 kcal/mol/M and 3.39 kcal/mol/M
  denaturant midpoint (higher = more stable): 2.5 M and 2.4 M and 2.45 M
  unfolding free energy: 6.71 kcal/mol and 8.36 kcal/mol and 8.31 kcal/mol
[1]
  Tm: 26.8 °C
  unfolding enthalpy (van 't Hoff): 19.1 kcal/mol
